# Reference: US20100234283A1
# T1: KDR-Fc (R&D System), P35968
# T1 chain: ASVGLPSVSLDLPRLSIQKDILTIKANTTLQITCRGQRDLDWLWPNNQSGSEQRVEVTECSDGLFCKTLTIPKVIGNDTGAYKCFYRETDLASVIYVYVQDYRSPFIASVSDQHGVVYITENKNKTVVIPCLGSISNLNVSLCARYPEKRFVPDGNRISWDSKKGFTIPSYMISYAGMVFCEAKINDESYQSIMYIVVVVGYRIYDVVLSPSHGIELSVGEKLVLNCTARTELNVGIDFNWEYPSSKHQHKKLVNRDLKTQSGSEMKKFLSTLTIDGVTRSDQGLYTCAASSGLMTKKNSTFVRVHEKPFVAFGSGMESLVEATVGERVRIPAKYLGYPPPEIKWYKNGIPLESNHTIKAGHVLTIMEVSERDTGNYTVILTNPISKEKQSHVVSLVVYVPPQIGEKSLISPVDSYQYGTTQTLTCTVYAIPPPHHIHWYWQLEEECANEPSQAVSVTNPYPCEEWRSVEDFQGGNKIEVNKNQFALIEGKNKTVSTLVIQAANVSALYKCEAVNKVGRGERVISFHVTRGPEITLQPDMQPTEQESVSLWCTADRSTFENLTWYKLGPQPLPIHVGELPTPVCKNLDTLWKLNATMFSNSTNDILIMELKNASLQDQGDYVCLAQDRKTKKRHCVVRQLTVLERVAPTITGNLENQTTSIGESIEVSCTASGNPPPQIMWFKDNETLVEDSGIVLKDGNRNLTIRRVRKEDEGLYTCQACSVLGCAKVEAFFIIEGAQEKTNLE
# Biological target: VEGFR-2 on HUVEC and 293/KDR cells (human), P35968
# Experiment: cell-based or functional assay
row,"inhibition of HUVEC migration (scratch wound assay, 50 ng/ml rhVEGF)",Binder
1,50%,ITMQCGIHQGQHPKIMICEMSF (modifications not checked) [VEGF-P3(NC)]
2,50%,ITMQIMRIKPHQGQHIGEMSF (modifications not checked) [VEGF 102-122]
3,50%,ITMQCGIHQGQHPKIMICEMSF (modifications not checked) [VEGF-P3(CYC)]

# Biological target: T1, KDR-Fc (R&D System), P35968
# Experiment: SPR (BIAcore 3000), peptide on CM5 chip, KDR-Fc injected, 1:1 Langmuir fit
row,Kd,Binder
1,49 nM,ITMQCGIHQGQHPKIMICEMSF (modifications not checked) [VEGF-P3(NC)]
2,45 nM,ITMQIMRIKPHQGQHIGEMSF (modifications not checked) [VEGF 102-122]
3,11 nM,ITMQCGIHQGQHPKIMICEMSF (modifications not checked) [VEGF-P3(CYC)]
